Assay results taken from the supplement of paper PMC9170038.

Tested on: MS2 coat protein
Assay: apparent KD of MS2 coat protein; designed switch direction (-1 OFF switch, 1 ON switch): -1; higher = weaker reporter binding
Method in brief: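 For each design, the apparent KD is the median over clusters of curves fitted to normalised cluster fluorescence. Clusters held RNA switches with common flanks, transcribed on Illumina chips by stalled E. coli RNA polymerase. These were titrated with SNAP-549-labelled MS2 coat protein, doubling from 0.7 or 1.5 nM to 3 µM, without input, with 200 uM small-molecule ligand, or with an oligonucleotide input.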

[1] = Eterna round: R95, input ligand: FMN 200 uM
[2] = Eterna round: R95, input ligand: microRNA oligo, concentration not stated
[3] = Eterna round: R95, input ligand: none
[4] = input ligand: microRNA oligo, concentration not stated

Sequence	apparent KD of MS2 coat protein [1]	apparent KD of MS2 coat protein [2]	apparent KD of MS2 coat protein [3]	apparent KD of MS2 coat protein [4]	apparent KD of MS2 coat protein (input ligand: FMN 200 uM)	apparent KD of MS2 coat protein (input ligand: none)
GAGGAACAUGAGGAUCACCCAUGUAAGGAUAUGCAAAGAGAGAAAGAAGAAGGAGAAAGCAGAAGGUACAAGGA [JR_Exclu1_Sub073] (puzzle: Exclusion 1)	42.7 nM	35.1 nM	54.2 nM	–	–	–
UUAUUAUAUGUAGGAUAUGCAUAUUAUUAUUAUGCAGAAGGACAUGAGGAUCACCCAUGUAUAUUAUUAUUGUAUAUUAUAUAU [Title] (Eterna round: R96, puzzle: Exclusion NG 1)	–	–	–	25.7 nM	–	–
AGUCGGUCAGGAUAUGCAAUUGUGGACAUGAGGAUCACCCAUGUAACGUGGGCUUGGUUUGUAGAAGGGACGUGCA [EX5 #90] (Eterna round: R97, puzzle: Exclusion 5)	–	–	–	–	378 nM	626 nM
UUUAAUUUUUUUUUUUUACAAGCUUUUUGCUCGUCUUAUACAUGAGGAUCACCCAUGUAAGUGGAGGAUAAAUUAUC [JMF 33] (puzzle: Sensor v3, turn-off variant 2)	24.7 nM	23.8 nM	24.1 nM	–	–	–
GCAAGCGAUUAGGCUCGUCUUAUAAAGAAAAGAAUGAAAACAUGAGGAUCACCCAUGUAAGUGGGAAAGUUGAAGUG [JR_SV3TOV2_Sub009] (puzzle: Sensor v3, turn-off variant 2)	267 nM	1340 nM	210 nM	–	–	–
AGUGCUGGCGCGUCGGUGUUGGUGCAAUAAGCUUGUGAAACAUGAGGAUCACCCAUGUCCUCAUAAGCUCGUCUUAU [salish99_TOv2_r2_085] (puzzle: Sensor v3, turn-off variant 2)	17.1 nM	732 nM	15.8 nM	–	–	–
UUUUAACAUGAGGAUCACCCAUGUGAGGAUAUGGUUUUUUUUUUUUUUUUUUUUUUUUCCAGAAGGCACAUUUU [My solution] (puzzle: Exclusion 1)	25.4 nM	13.7 nM	119 nM	–	–	–
CUGGUCCGAGGAUAUAUUAUGUGAAACAUGAGGAUCACCCAUGUUAUAUAAUGGAUGUAAAUAGAAGGCGGACUAG [Mat - Exclusion 5 - JL mod - D62] (puzzle: Exclusion 5)	27.7 nM	25.5 nM	28.2 nM	–	–	–
GCAGCGUAUGUAGGAUAUCGGUCAGUUUCUGAUCGAGAAGGACAUGAGGAUCACCCAUGUAAAUUACCGUCUUUGACGGGCUGC [JL ENG1 3.68] (Eterna round: R96, puzzle: Exclusion NG 1)	–	–	–	14.1 nM	20.5 nM	18.1 nM
CAUACUGAAGUUAGGAUAUUCGGACGUAUACGGAUGGAGAAGGGACAUGAGGAUCACCCAUGUAGAUAGUAAAG [EX-4 Malc #12] (puzzle: Brourd's mod of Exclusion 4)	22.7 nM	23.1 nM	22.3 nM	–	–	–
AAGUACCGUCACGAUAGUGAUGGUACAACAAGUAGUGAAACAUGAGGAUCACCCAUGUCCUCAGUUGCUCGUCUUAU [Sensor 3 - 86] (puzzle: Sensor v3, turn-off variant 2)	283 nM	269 nM	298 nM	–	–	–
UUUACAAGCUUUAGAUCCCACAUGAGGAUCACCCAUGUUGCUGCCGGUGACGGUAGCAUAACUAAUGCUCGUCUUAU [JL TOV1 3.62] (Eterna round: R97, puzzle: Sensor, turn-off variant 1)	–	–	–	–	123 nM	235 nM
CCAUCGAGUGUGAGGAUAUGCUGGUCCAUAGAUCAGCAGAAGGCACAUGAGGAUCACCCAUGUGGAGACGGUGG [Mat - Exclusion 4 - JL Mod - D78] (puzzle: Brourd's mod of Exclusion 4)	418 nM	34.4 nM	36.6 nM	–	–	–
CCGAAACAUGAGGAUCACCCAUGUGAGGAUAUGAGCGUCUAGUUGAGAGAUUGGACGCUCAGAAGGCACAAAGG [JR_Ex1_Sub074] (Eterna round: R97, puzzle: Exclusion 1)	–	–	–	–	105 nM	35.5 nM
GUACUGACAGGAUAUACAUGAGGAUCACCCAUGUGCCCUUAAUGAUGCAAAGCAUCAAGUAGAAGGGUCUGUAC [Omei Ex3 Model Bachelor's Dilema v22] (Eterna round: R97, puzzle: Exclusion 3)	–	–	–	–	42.5 nM	32.8 nM
AGGUGACAUGAGGAUCACCCAUGUAAGGAUAUACGGUUAGUGGAGAGUUGGAAGAGAGGUAGAAGGUACGGAGC [JR_Exclu1_Sub059] (puzzle: Exclusion 1)	–	197 nM	–	–	–	–
GCCAAUGUGGAGGAUAUCGACUUCGAAAGAAGUCGAGAAGGCCACACAUGAGGAUCACCCAUGUGAUGCCAGGC [Omei Ex6 H10] (Eterna round: R97, puzzle: Exclusion 6)	–	–	–	–	216 nM	189 nM

Sequence	apparent KD of MS2 coat protein [1]	apparent KD of MS2 coat protein [2]	apparent KD of MS2 coat protein [3]	apparent KD of MS2 coat protein [4]	apparent KD of MS2 coat protein (input ligand: FMN 200 uM)	apparent KD of MS2 coat protein (input ligand: none)
CAACGAAGUCGAGGAUAUGCCCACUCCGCAGCGGCAGAAGGCGACAUGAGGAUCACCCAUGUAACGGCUAACGGGAUGGGAAGG [Eternabot solution 7] (Eterna round: R96, puzzle: Exclusion NG 1)	–	–	–	17.7 nM	162 nM	25.9 nM
CCCACGUGAGGAUAUUCAACGGUAAGCGAUCUAUGCACCUUGAAGAAGGCACAUGAGGAUCACCCAUGUCCUAA [Eternabot (L1) Solution 44] (Eterna round: R97, puzzle: Exclusion 4)	–	–	–	–	44.8 nM	22.2 nM
UUAAUUAAUUGCGCAAGAUCACAUGAGGAUCACCCAUGUAUAUAGGAUAUCAGCUCGUGUAGAGCUGAGAAGGAUAUACAGCGC [ExNG3/3-A3] (Eterna round: R96, puzzle: Exclusion NG 3)	–	–	–	419 nM	886 nM	495 nM
CAGUACAGAGGAUAUACAUGAGGAUCACCCAUGUGUUUCAGCUAGGAAACUAGCGAAUGUAGAAGGCUGUACUG [jl-ex3-4.24 salish99 mod] (Eterna round: R97, puzzle: Exclusion 3)	–	–	–	–	178 nM	38.3 nM
UUUAGUUCAGGAUAUGUAGACAUUAACAUGAGGAUCACCCAUGUAGAUCCUGAAUUGACUACAGAAGGGAGCAUUU [Mod of Brourd 9 - Jieux - Exclusion 5] (Eterna round: R97, puzzle: Exclusion 5)	–	–	–	–	88.9 nM	23.9 nM
GGAUGUUCAGAGGAUAUCGAUCCCGAGACCGGGCGAGAAGGUUGAACAUGAGGAUCACCCAUGUGAGGCCUAAC [Cebezais] (Eterna round: R97, puzzle: Exclusion 6)	–	–	–	–	38.5 nM	12.7 nM
UGGUCACAUGAGGAUCACCCAUGUCAGGAUAUCUACAUUGAAGCCUCGGCUUCAAUGUAGAGAAGGGACAUAAU [E1/6-B2] (Eterna round: R97, puzzle: Exclusion 1)	–	–	–	–	121 nM	265 nM
UAUUAGCAAGUGAGAUCCGACAUGAGGAUCACCCAUGUGCUCGUCUUAUAAGGUAAUAUGACAAAAGUCAUAUUACC [Elimod 5 - Jieux - Sensor, turn-off variant 1] (Eterna round: R97, puzzle: Sensor, turn-off variant 1)	–	–	–	–	301 nM	293 nM
ACAUGAGGAUCACCCAUGUUUUUCGGGUACUCUUGAUACAGCAAGGAUAUGCAUUAUUUAUGUACGCAGAAGGUGCAUUACGUC [JR_ExcNG3_Sub064] (Eterna round: R96, puzzle: Exclusion NG 3)	–	–	–	67 nM	104 nM	71.9 nM
CCGGAAAUGGAGGAUAUCGUAUCGGAUACGAUACGAGAAGGCUAUACAUGAGGAUCACCCAUGUGUCCUACCGG [Fiskers Ex 6 - 5] (puzzle: Exclusion 6)	–	12.6 nM	–	–	–	–
CGACGUAAAGGAUAUACAUGAGGAUCACCCAUGUCCCUACAAUGAGUAGGUACACGCAGUAGAAGGUUACUUCG [Eternabot (Original) Solution 15] (Eterna round: R97, puzzle: Exclusion 3)	–	–	–	–	107 nM	37 nM
AUUAAUUGUCAGAUGGGUGACAUGAGGAUCACCCAUGUCACAAGCUUUUUGCUCGUCUUAUAAUUAACCCAUCUGAC [Stov1/11-A2] (Eterna round: R97, puzzle: Sensor, turn-off variant 1)	–	–	–	–	14.1 nM	13.3 nM
AAAUCUCACGUAAGGAUAUCCUGGGCAACGUCCACGGAGAAGGUACAUGAGGAUCACCCAUGUGCUCGCUAUAC [BmEX4 C.1] (Eterna round: R97, puzzle: Brourd's mod of Exclusion 4)	–	–	–	–	25.2 nM	19.7 nM
AUAAUGUAAGGAUAUCAGUCGUACAGCUUCGGCUGUACGACUGAGAAGGUACAUGAGGAUCACCCAUGUGGUCA [E4/9-A1] (Eterna round: R97, puzzle: Exclusion 4)	–	–	–	–	52.2 nM	886 nM
AUCAUGUCAGGAUAUAUGACAUGGCUCUUCGGAGCAAGCUCAUAGAAGGGACAUGAGGAUCACCCAUGUAGAGC [Ex4-3: 22] (puzzle: Exclusion 4)	–	22.1 nM	–	–	–	–
AAUGAUUGACGAGGAUAUUGUGUUAGAUCACGACGAGAAGGCGUCUGUCACAUGAGGAUCACCCAUGUGAGCCUGGUGGAUAGA [Ex NG1 #78] (Eterna round: R96, puzzle: Exclusion NG 1)	–	–	–	35.1 nM	82.6 nM	50 nM
CAGAACUGAGGAUAUACAUGAGGAUCACCCAUGUGUUCCAGCUAGGAGACUAGCAUAUGUAGAAGGCAGUUCUG [Mat - Exclusion 3 - JL Mod - D11] (Eterna round: R97, puzzle: Exclusion 3)	–	–	–	–	587 nM	359 nM
